{"source": "paper PMC7072996", "about": "“Engineering Herbicide-Tolerance Rice Expressing an Acetohydroxyacid Synthase with a Single Amino Acid Deletion” (International Journal of Molecular Sciences, 2020)", "proteins": {"B1": {"name": "AHAS-WT (rice acetohydroxyacid synthase) (Oryza sativa Japonica Group; DEL548-548) (protein)", "chain": "TPLRPWGPAEPRKGADILVEALERCGVSDVFAYPGGASMEIHQALTRSPVITNHLFRHEQGEAFAASGYARASGRVGVCVATSGPGATNLVSALADALLDSVPMVAITGQVPRRMIGTDAFQETPIVEVTRSITKHNYLVLDVEDIPRVIQEAFFLASSGRPGPVLVDIPKDIQQQMAVPVWDTSMNLPGYIARLPKPPATELLEQVLRLVGESRRPILYVGGGCSASGDELRWFVELTGIPVTTTLMGLGNFPSDDPLSLRMLGMHGTVYANYAVDKADLLLAFGVRFDDRVTGKIEAFASRAKIVHIDIDPAEIGKNKQPHVSICADVKLALQGLNALLQQSTTKTSSDFSAWHNELDQQKREFPLGYKTFGEEIPPQYAIQVLDELTKGEAIIATGVGQHQMWAAQYYTYKRPRQWLSSAGLGAMGFGLPAAAGASVANPGVTVVDIDGDGSFLMNIQELALIRIENLPVKVMVLNNQHLGMVVQEDRFYKANRAHTYLGNPECESEIYPDFVTIAKGFNIPAVRVTKKSEVRAAIKKMLETPGPYLLDIIVPHQEHVLPMIPSGGAFKDMILDGDGRTVY", "notes": "mature AHAS, N-terminal 59-residue signal (transit) peptide removed; pGEX4T2, E. coli Rosetta; GST tag cut by thrombin; 64 kDa; WT mainly dimer (128 kDa), small tetramer peak (256 kDa); deletion mutant dimer only"}, "B2": {"name": "AHAS-WT (rice acetohydroxyacid synthase) (Oryza sativa Japonica Group) (protein)", "chain": "TPLRPWGPAEPRKGADILVEALERCGVSDVFAYPGGASMEIHQALTRSPVITNHLFRHEQGEAFAASGYARASGRVGVCVATSGPGATNLVSALADALLDSVPMVAITGQVPRRMIGTDAFQETPIVEVTRSITKHNYLVLDVEDIPRVIQEAFFLASSGRPGPVLVDIPKDIQQQMAVPVWDTSMNLPGYIARLPKPPATELLEQVLRLVGESRRPILYVGGGCSASGDELRWFVELTGIPVTTTLMGLGNFPSDDPLSLRMLGMHGTVYANYAVDKADLLLAFGVRFDDRVTGKIEAFASRAKIVHIDIDPAEIGKNKQPHVSICADVKLALQGLNALLQQSTTKTSSDFSAWHNELDQQKREFPLGYKTFGEEIPPQYAIQVLDELTKGEAIIATGVGQHQMWAAQYYTYKRPRQWLSSAGLGAMGFGLPAAAGASVANPGVTVVDIDGDGSFLMNIQELALIRIENLPVKVMVLNNQHLGMVVQWEDRFYKANRAHTYLGNPECESEIYPDFVTIAKGFNIPAVRVTKKSEVRAAIKKMLETPGPYLLDIIVPHQEHVLPMIPSGGAFKDMILDGDGRTVY", "notes": "as for B1"}}, "substrate": "CC(=O)C(=O)O", "test": "acetolactate to acetoin, creatine/naphthol colorimetric A525, Michaelis-Menten", "format": "biochemical, Oryza sativa", "details": "pH 7.5 phosphate, 10 mM MgCl2, 20 uM FAD, 1 mM thiamine pyrophosphate, 37 °C, no herbicide", "text": "acetolactate to acetoin, creatine/naphthol colorimetric A525, Michaelis-Menten on AHAS-WT (rice acetohydroxyacid synthase)"}
{"protein": "B1", "values": [{"measurement": "Km", "result": "9.4 ± 0.4", "unit": "mM"}, {"measurement": "kcat", "result": "6.6 ± 0.5", "unit": "s⁻¹"}, {"measurement": "kcat/Km", "result": "700 ± 50", "unit": "M⁻¹ s⁻¹"}]}
{"protein": "B2", "values": [{"measurement": "Km", "result": "9.2 ± 0.4", "unit": "mM"}, {"measurement": "kcat", "result": "6.7 ± 0.3", "unit": "s⁻¹"}, {"measurement": "kcat/Km", "result": "710 ± 30", "unit": "M⁻¹ s⁻¹"}]}
